The values below come from US20160130333A1.

This assay concerns the target histones. The experiment in a line: ELISA.

B1: murine IMMU-H4 antibody (parental murine anti-histone H4 antibody) (antibody, V domains shown)
VH: QVQLQQSGAELVRPGASVKLSCTASGFNIKDDYLHWVKQRPEQGLEWIGWIDPENGDTEYASKFQGKATITADTSSNTAYLQLSSLTSEDTAVYYCSSPLVHLRTFAYWGQGTLVTVS
VL: DIQLTQSPASLAVSLGQRATISCRASESVDSYDNSLHWFQQKPGQPPKLLIYLASNLESGVPARFSGSGSRTDFTLTIDPVEADDAATYYCQQNNEDPWTFGGGTKLEIKR
Regarding B1, the Kd (commonly the free concentration of one partner at which half of the binding sites on the other are occupied at equilibrium, for simple one-to-one binding) worked out at 6.6 nM.
